Assay [1] has as its target 1G4 TCRαβ wild type (HLA-A2-restricted TCR specific for NY-ESO-1 157-165), β-HA and α-FLAG. Conditions: scale: nM.
Assay [2] deals with 1G4 TCRαβ with βA291 (αWT, β Y291A), β-HA and α-FLAG. Particulars: scale: nM.
The target is the same in assay [3]. Nature of the assay: co-IP; DDM stability assay (DSA): J76 cells lysed in 0.5% DDM, 150 mM NaCl, 20 mM Tris pH 8.0, 30 min on ice; post-nuclear lysate on anti-HA agarose beads (β-HA) 1 h at 4°C; quantitative immunoblot of β (HA), ε, γ, δ, ζ; ratios normalised to WT; also after A770041 treatment of the cells. For orientation: A western blot detects proteins with antibodies after separation by electrophoresis.

For assay [4], the target named is QM-α TCRαβ (1G4 variant with mutations in αCDR2, βCDR2 and βCDR3), β-HA, in J76 cells. Nature of the assay: pull-down; ζ recovered with ligand-engaged TCR: (9V-A2)4-His bound to intact cells (37°C or 0°C, ± A770041), 0.5% DDM lysis, capture on HisPur cobalt resin; ζ/β2 compared with non-stimulated anti-HA pull-down (= 1).
Assay [5] addresses wtc51 TCRαβ (1G4 variant with four mutations in βCDR2), β-HA, in J76 cells. Described as above.
In assay [6] the target is 1G4 TCRαβ wild type (HLA-A2-restricted TCR specific for NY-ESO-1 157-165), β-HA and α-FLAG. Nature of the assay: co-IP; DDM stability assay (DSA): J76 cells lysed in 0.5% DDM, 150 mM NaCl, 20 mM Tris pH 8.0, 30 min on ice; post-nuclear lysate on anti-HA agarose beads (β-HA) 1 h at 4°C; quantitative immunoblot of β (HA), ε, γ, δ, ζ; ratios normalised to WT; also after A770041 treatment of the cells.

Assay [7] concerns the target wtc51 TCRαβ (1G4 variant with four mutations in βCDR2), β-HA, in J76 cells.

Regarding “6V-HLA-A2 tetramer on phycoerythrin-conjugated streptavidin (from UniProt P61769 21-119) (peptide-MHC)”, the pErk MFI (flow cytometry) of CD8- J76 cells against (6V-A2)4 nM, EC50 of the non-linear regression fit was determined as 19.5 in assay [1] and 19 in assay [2]. As for “CD3γ, endogenous in J76 Jurkat cells (from UniProt P09693 23-182) (natural protein)”, the reduction of recovery against 1G4-WT in assay [3] was determined as 40%.

In the case of “CD3δ, endogenous in J76 Jurkat cells (from UniProt P04234 22-171) (natural protein)”, in assay [3], the reduction of recovery against 1G4-WT is 10%. For the substance “CD3ε, endogenous in J76 Jurkat cells (from UniProt P07766 23-207) (natural protein)”, the ε/βT ratio (1G4-WT = 1) (ratio to 1G4-WT) in assay [3] was 0.5. Take “CD3ζ (ζζ), endogenous in J76 Jurkat cells (from UniProt P20963-1 22-164) (natural protein)”: the reduction of the ζ/β2 ratio of liganded against unliganded TCR in assay [4] is 40%. Moreover, the ζ/β2 ratio of liganded against unliganded TCR (= 1) (ratio to unliganded wtc51) in assay [5] turned out to be 0.5. Further, the ζ/β2 ratio (1G4-WT = 1) (ratio to 1G4-WT) in assay [3] was 0.2. Consider “CD3ζ I38A expressed in J76-1G4WT-ζKO cells (from UniProt P20963-1 22-164) (natural protein)”, for which the ζ/β2 ratio (ζWT = 1) in assay [6] was 0.05 ratio to ζWT. As to “CD3ζ I41A expressed in J76-1G4WT-ζKO cells (from UniProt P20963-1 22-164) (natural protein)”, the ζ/β2 ratio (ζWT = 1) in assay [6] was 0.25 ratio to ζWT. Substance “soluble monovalent 9V-HLA-A2 (biotinylated pMHC monomer) (from UniProt P61769 21-119) (peptide-MHC)” came in with a pErk immunoblot of J76 wtc51 cells, dose response of sm-9V-A2 (Figure S7F) in assay [7] of 3 nM.
